# According to patent US20240066131A1 (Protagonist Therapeutics, Inc., priority 2020, published 2024):
# Starred links: 1 amine or outer side, 2 acyl side, 3 side chain; linkers in the order of their positions; H or OH if unused. Positions of bridges follow the written chain, without caps; N, C: chain ends. Non-standard residues stand in square brackets, D forms with d. Groups on a side chain read outwards from the residue. *: point of attachment. Gal = N6-(4-(galactopyranosyloxy)butanoyl) on the lysine side chain; C18 diacid = O=C(O)CCCCCCCCCCCCCCCCC(=O)*; Dip = N[C@H](C(=O)O)C(c1ccccc1)c1ccccc1; γGlu = O=C(O)[C@H](CCC(=O)[*:2])N[*:1]; Palmitoyl = CCCCCCCCCCCCCCCC(=O)*; Myristoyl = CCCCCCCCCCCCCC(=O)*; β3hF = N[C@H](CC(=O)O)Cc1ccccc1; Isovaleryl = CC(C)CC(=O)*; Dap = NC[C@H](N)C(=O)O; AEEA = NCCOCCOCC(=O)O; Ahx = NCCCCCC(=O)O
# T1: human ferroportin (SLC40A1) fused in frame with GFP, stably expressed in HEK293 cells (human, UniProt Q9NP59 1-571)
# T1 sequence (looked up): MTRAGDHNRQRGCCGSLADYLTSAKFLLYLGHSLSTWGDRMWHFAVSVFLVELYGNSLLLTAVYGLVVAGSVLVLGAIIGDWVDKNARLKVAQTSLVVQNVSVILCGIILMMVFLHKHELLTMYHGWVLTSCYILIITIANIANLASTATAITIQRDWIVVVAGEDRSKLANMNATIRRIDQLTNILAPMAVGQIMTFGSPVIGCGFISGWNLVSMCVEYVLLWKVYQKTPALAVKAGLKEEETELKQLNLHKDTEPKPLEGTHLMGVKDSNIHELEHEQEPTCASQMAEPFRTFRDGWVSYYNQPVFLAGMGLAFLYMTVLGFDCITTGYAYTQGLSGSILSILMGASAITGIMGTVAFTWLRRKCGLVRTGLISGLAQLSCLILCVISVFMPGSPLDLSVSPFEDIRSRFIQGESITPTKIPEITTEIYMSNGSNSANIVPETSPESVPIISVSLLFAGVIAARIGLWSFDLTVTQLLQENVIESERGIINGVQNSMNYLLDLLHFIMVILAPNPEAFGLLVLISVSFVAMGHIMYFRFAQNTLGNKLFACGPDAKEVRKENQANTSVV
# Target: T1, human ferroportin (SLC40A1) fused in …
# Test: cell-based or functional assay
row,FPN IC50,Binder
1,3370 nM,Ac-K([AEEA-AEEA-γGlu-C18 diacid])TH[Dip]PAI[dK][β3hF]-NH2 (SMILES CC[C@H](C)[C@H](NC(=O)[C@H](C)NC(=O)[C@@H]1CCCN1C(=O)[C@@H](NC(=O)[C@H](Cc1c[nH]cn1)NC(=O)[C@@H](NC(=O)[C@H](CCCCNC(=O)COCCOCCNC(=O)COCCOCCNC(=O)CC[C@H](NC(=O)CCCCCCCCCCCCCCCCC(=O)O)C(=O)O)NC(C)=O)[C@@H](C)O)C(c1ccccc1)c1ccccc1)C(=O)N[C@H](CCCCN)C(=O)N[C@H](CC(N)=O)Cc1ccccc1) [Ac-[Lys(1PEG2_1PEG2_IsoGlu_C18_Diacid)]-T-H-[Dpa]-P-A-I-[(D)Lys]-[bhPhe]-NH2]
2,> 10000 nM,Isovaleryl-ETHFP[Dap]IK([AEEA-AEEA-γGlu-C18 diacid])FEPRSKGEK-NH2 (lactam 6-16; SMILES CC[C@H](C)[C@@H]1NC(=O)[C@@H](NC(=O)[C@@H]2CCCN2C(=O)[C@H](Cc2ccccc2)NC(=O)[C@H](Cc2c[nH]cn2)NC(=O)[C@@H](NC(=O)[C@H](CCC(=O)O)NC(=O)CC(C)C)[C@@H](C)O)CNC(=O)CC[C@@H](C(=O)N[C@@H](CCCCN)C(N)=O)NC(=O)CNC(=O)[C@H](CCCCN)NC(=O)[C@H](CO)NC(=O)[C@H](CCCNC(=N)N)NC(=O)[C@@H]2CCCN2C(=O)[C@H](CCC(=O)O)NC(=O)[C@H](Cc2ccccc2)NC(=O)[C@H](CCCCNC(=O)COCCOCCNC(=O)COCCOCCNC(=O)CC[C@H](NC(=O)CCCCCCCCCCCCCCCCC(=O)O)C(=O)O)NC1=O) [Isovaleric Acid-E-T-H-F-P-Dap-I-[Lys(1PEG2_1PEG2_IsoGlu_C18_Diacid)]-F-E-P-R-S-K-G-E-K-NH2]
3,6110 nM,Isovaleryl-ETHFP[Dap]IK([AEEA-AEEA-γGlu-C18 diacid])FEPRSKGDK-NH2 (lactam 6-16; SMILES CC[C@H](C)[C@@H]1NC(=O)[C@@H](NC(=O)[C@@H]2CCCN2C(=O)[C@H](Cc2ccccc2)NC(=O)[C@H](Cc2c[nH]cn2)NC(=O)[C@@H](NC(=O)[C@H](CCC(=O)O)NC(=O)CC(C)C)[C@@H](C)O)CNC(=O)C[C@@H](C(=O)N[C@@H](CCCCN)C(N)=O)NC(=O)CNC(=O)[C@H](CCCCN)NC(=O)[C@H](CO)NC(=O)[C@H](CCCNC(=N)N)NC(=O)[C@@H]2CCCN2C(=O)[C@H](CCC(=O)O)NC(=O)[C@H](Cc2ccccc2)NC(=O)[C@H](CCCCNC(=O)COCCOCCNC(=O)COCCOCCNC(=O)CC[C@H](NC(=O)CCCCCCCCCCCCCCCCC(=O)O)C(=O)O)NC1=O) [Isovaleric Acid-E-T-H-F-P-Dap-I-[Lys(1PEG2_1PEG2_IsoGlu_C18_Diacid)]-F-E-P-R-S-K-G-D-K-NH2]
4,1160 nM,Isovaleryl-ETHFPAIK([Ahx-Myristoyl])FEPRSKGA[dK]-NH2 (SMILES CCCCCCCCCCCCCC(=O)NCCCCCC(=O)NCCCC[C@H](NC(=O)[C@@H](NC(=O)[C@H](C)NC(=O)[C@@H]1CCCN1C(=O)[C@H](Cc1ccccc1)NC(=O)[C@H](Cc1c[nH]cn1)NC(=O)[C@@H](NC(=O)[C@H](CCC(=O)O)NC(=O)CC(C)C)[C@@H](C)O)[C@@H](C)CC)C(=O)N[C@@H](Cc1ccccc1)C(=O)N[C@@H](CCC(=O)O)C(=O)N1CCC[C@H]1C(=O)N[C@@H](CCCNC(=N)N)C(=O)N[C@@H](CO)C(=O)N[C@@H](CCCCN)C(=O)NCC(=O)N[C@@H](C)C(=O)N[C@H](CCCCN)C(N)=O) [Isovaleric Acid-E-T-H-F-P-A-I-[Lys(Ahx_C14_acid)]-F-E-P-R-S-K-G-A-[(D)Lys]-NH2]
5,822 nM,Isovaleryl-ETHFPAIK([γGlu-Myristoyl])FEPRSKGAK-NH2 [Isovaleric Acid-E-T-H-F-P-A-I-[Lys(IsoGlu_C14_acid)]-F-E-P-R-S-K-G-A-K-NH2]
6,1070 nM,Isovaleryl-ETHFPAIK([Ahx-C12 acid])FEPRSKGAK-NH2 [Isovaleric Acid-E-T-H-F-P-A-I-[Lys(Ahx_C12_acid)]-F-E-P-R-S-K-G-A-K-NH2]
7,> 3000 nM,Isovaleryl-ETHFPAIK([Ahx-C10 acid])FEPRSKGAK-NH2 [Isovaleric Acid-E-T-H-F-P-A-I-[Lys(Ahx_C10_acid)]-F-E-P-R-S-K-G-A-K-NH2]

# More lines, now with the values behind:
row,Binder,FPN IC50
1,Isovaleryl-K(GalNH)TH[Dip]PAIK([Ahx-Palmitoyl])[β3hF]-NH2 [Isovaleric Acid-[Lys(GalNH-T-H-[Dpa]-P-A-I-[Lys(Ahx_Palm)]-[bhPhe]-NH2],150 nM
2,Isovaleryl-ETHFPAIK([Ahx-Myristoyl])FEPR[dS]-NH2 (SMILES CCCCCCCCCCCCCC(=O)NCCCCCC(=O)NCCCC[C@H](NC(=O)[C@@H](NC(=O)[C@H](C)NC(=O)[C@@H]1CCCN1C(=O)[C@H](Cc1ccccc1)NC(=O)[C@H](Cc1c[nH]cn1)NC(=O)[C@@H](NC(=O)[C@H](CCC(=O)O)NC(=O)CC(C)C)[C@@H](C)O)[C@@H](C)CC)C(=O)N[C@@H](Cc1ccccc1)C(=O)N[C@@H](CCC(=O)O)C(=O)N1CCC[C@H]1C(=O)N[C@@H](CCCNC(=N)N)C(=O)N[C@H](CO)C(N)=O) [Isovaleric Acid-E-T-H-F-P-A-I-[Lys(Ahx_C14_acid)]-F-E-P-R-[(D)Ser]-NH2],1160 nM
3,Isovaleryl-K([AEEA-AEEA-Ahx-C18 diacid])TH[Dip]PAI[dK][β3hF]-NH2 (SMILES CC[C@H](C)[C@H](NC(=O)[C@H](C)NC(=O)[C@@H]1CCCN1C(=O)[C@@H](NC(=O)[C@H](Cc1c[nH]cn1)NC(=O)[C@@H](NC(=O)[C@H](CCCCNC(=O)COCCOCCNC(=O)COCCOCCNC(=O)CCCCCNC(=O)CCCCCCCCCCCCCCCCC(=O)O)NC(=O)CC(C)C)[C@@H](C)O)C(c1ccccc1)c1ccccc1)C(=O)N[C@H](CCCCN)C(=O)N[C@H](CC(N)=O)Cc1ccccc1) [Isovaleric Acid-[Lys(1PEG2_1PEG2_Ahx_C18_Diacid)]-T-H-[Dpa]-P-A-I-[(D)Lys]-[bhPhe]-NH2],1280 nM
4,Isovaleryl-ETHFPDIK([AEEA-AEEA-γGlu-C18 diacid])FEPRSKG[Dap]K-NH2 (lactam 6-16; SMILES CC[C@H](C)[C@@H]1NC(=O)[C@@H](NC(=O)[C@@H]2CCCN2C(=O)[C@H](Cc2ccccc2)NC(=O)[C@H](Cc2c[nH]cn2)NC(=O)[C@@H](NC(=O)[C@H](CCC(=O)O)NC(=O)CC(C)C)[C@@H](C)O)CC(=O)NC[C@@H](C(=O)N[C@@H](CCCCN)C(N)=O)NC(=O)CNC(=O)[C@H](CCCCN)NC(=O)[C@H](CO)NC(=O)[C@H](CCCNC(=N)N)NC(=O)[C@@H]2CCCN2C(=O)[C@H](CCC(=O)O)NC(=O)[C@H](Cc2ccccc2)NC(=O)[C@H](CCCCNC(=O)COCCOCCNC(=O)COCCOCCNC(=O)CC[C@H](NC(=O)CCCCCCCCCCCCCCCCC(=O)O)C(=O)O)NC1=O) [Isovaleric Acid-E-T-H-F-P-D-I-[Lys(1PEG2_1PEG2_IsoGlu_C18_Diacid)]-F-E-P-R-S-K-G-Dap-K-NH2],> 10000 nM
5,Isovaleryl-ETHFPAIK([Ahx-Myristoyl])FEPRSKGAK-NH2 [Isovaleric Acid-E-T-H-F-P-A-I-[Lys(Ahx_C14_acid)]-F-E-P-R-S-K-G-A-K-NH2],689 nM
6,Isovaleryl-ETHFPEIK([AEEA-AEEA-γGlu-C18 diacid])FEPRSKG[Dap]K-NH2 (lactam 6-16; SMILES CC[C@H](C)[C@@H]1NC(=O)[C@@H](NC(=O)[C@@H]2CCCN2C(=O)[C@H](Cc2ccccc2)NC(=O)[C@H](Cc2c[nH]cn2)NC(=O)[C@@H](NC(=O)[C@H](CCC(=O)O)NC(=O)CC(C)C)[C@@H](C)O)CCC(=O)NC[C@@H](C(=O)N[C@@H](CCCCN)C(N)=O)NC(=O)CNC(=O)[C@H](CCCCN)NC(=O)[C@H](CO)NC(=O)[C@H](CCCNC(=N)N)NC(=O)[C@@H]2CCCN2C(=O)[C@H](CCC(=O)O)NC(=O)[C@H](Cc2ccccc2)NC(=O)[C@H](CCCCNC(=O)COCCOCCNC(=O)COCCOCCNC(=O)CC[C@H](NC(=O)CCCCCCCCCCCCCCCCC(=O)O)C(=O)O)NC1=O) [Isovaleric Acid-E-T-H-F-P-E-I-[Lys(1PEG2_1PEG2_IsoGlu_C18_Diacid)]-F-E-P-R-S-K-G-Dap-K-NH2],> 10000 nM
7,Isovaleryl-ETHFPAIK([Ahx-Myristoyl])FEPRSKG[dA]-NH2 (SMILES CCCCCCCCCCCCCC(=O)NCCCCCC(=O)NCCCC[C@H](NC(=O)[C@@H](NC(=O)[C@H](C)NC(=O)[C@@H]1CCCN1C(=O)[C@H](Cc1ccccc1)NC(=O)[C@H](Cc1c[nH]cn1)NC(=O)[C@@H](NC(=O)[C@H](CCC(=O)O)NC(=O)CC(C)C)[C@@H](C)O)[C@@H](C)CC)C(=O)N[C@@H](Cc1ccccc1)C(=O)N[C@@H](CCC(=O)O)C(=O)N1CCC[C@H]1C(=O)N[C@@H](CCCNC(=N)N)C(=O)N[C@@H](CO)C(=O)N[C@@H](CCCCN)C(=O)NCC(=O)N[C@H](C)C(N)=O) [Isovaleric Acid-E-T-H-F-P-A-I-[Lys(Ahx_C14_acid)]-F-E-P-R-S-K-G-[(D)Ala]-NH2],1070 nM
8,Isovaleryl-K(Gal)TH[Dip]PK([Ahx-Palmitoyl])[β3hF]-NH2 [Isovaleric Acid-[Lys(Gal-T-H-[Dpa]-P-[Lys(Ahx_Palm)]-[bhPhe]-NH2],758 nM
9,Ac-K([AEEA-AEEA-Ahx-C18 diacid])TH[Dip]PAI[dK][β3hF]-NH2 (SMILES CC[C@H](C)[C@H](NC(=O)[C@H](C)NC(=O)[C@@H]1CCCN1C(=O)[C@@H](NC(=O)[C@H](Cc1c[nH]cn1)NC(=O)[C@@H](NC(=O)[C@H](CCCCNC(=O)COCCOCCNC(=O)COCCOCCNC(=O)CCCCCNC(=O)CCCCCCCCCCCCCCCCC(=O)O)NC(C)=O)[C@@H](C)O)C(c1ccccc1)c1ccccc1)C(=O)N[C@H](CCCCN)C(=O)N[C@H](CC(N)=O)Cc1ccccc1) [Ac-[Lys(1PEG2_1PEG2_Ahx_C18_Diacid)]-T-H-[Dpa]-P-A-I-[(D)Lys]-[bhPhe]-NH2],> 3000 nM
10,Isovaleryl-K([AEEA-AEEA-γGlu-C18 diacid])TH[Dip]PAI[dK][β3hF]-NH2 (SMILES CC[C@H](C)[C@H](NC(=O)[C@H](C)NC(=O)[C@@H]1CCCN1C(=O)[C@@H](NC(=O)[C@H](Cc1c[nH]cn1)NC(=O)[C@@H](NC(=O)[C@H](CCCCNC(=O)COCCOCCNC(=O)COCCOCCNC(=O)CC[C@H](NC(=O)CCCCCCCCCCCCCCCCC(=O)O)C(=O)O)NC(=O)CC(C)C)[C@@H](C)O)C(c1ccccc1)c1ccccc1)C(=O)N[C@H](CCCCN)C(=O)N[C@H](CC(N)=O)Cc1ccccc1) [Isovaleric Acid-[Lys(1PEG2_1PEG2_IsoGlu_C18_Diacid)]-T-H-[Dpa]-P-A-I-[(D)Lys]-[bhPhe]-NH2],2160 nM
